Data reported in doi:10.1101/2024.04.22.590578.

Biological target: SARS-CoV-2 main protease (M^pro), wild type (SARS-CoV-2)
Assay: crystal structure

Substance: SARS-CoV-2 main protease (M^pro), wild type (enzyme)
- stoichiometry N: 2
